Biological target: TafA (HAH_0240), mature major subunit of tat-fimbriae (tafi) of Haloarcula hispanica (Haloarcula hispanica)
Test: co-sedimentation

For “TafC (HAH_0242), minor component of tafi of Haloarcula hispanica (natural protein)”, the molar ratio in filament preparations (molecules per 100 molecules of TafA) was 1.
“TafE (HAH_0239), minor component of tafi of Haloarcula hispanica (natural protein)” was tested, and the molar ratio in filament preparations (molecules per 100 molecules of TafA) was 5.

From publication doi:10.1101/2023.03.06.531322
